Test results from patent publication US20120135912A1 (PERSEID THERAPEUTICS, published 2012).

Target: T1, human VLA4 (integrin alpha4beta1) on the surface of U937 cells (human, UniProt P13612 34-1032; P05556 21-798)
T1 construct: whole, on cells; Endogenous VLA4 of U937 cells; assay buffer held 1 mM each of CaCl2, MgCl2 and MnCl2; also called cell-surface human VLA4
Assay: static cell adhesion assay: calcein-labelled U937 cells on wells coated with 7D-VCAM-1, buffer with 1 mM MnCl2 (Example 13)
Method: Prior to assaying, the U937 cells were re-suspended in labeling buffer (RPMI 1640 culture media without phenol red, 10% FBS; Invitrogen), then labeled with 0.5 μg/ml Calcein-AM at 37° C. for 30 minutes on a rotator. Subsequently, the cells were washed three times with labeling buffer then resuspended at 5×10^6 cells/ml in assay buffer (HEPES CaMgMn buffer: 50 mM HEPES, 150 mM NaCl, 1 mM CaCl₂, 1 mM MgCl₂, 1 mM MnCl2 pH 7.4).
The test compounds (i.e., the 2D-VCAM-1 variant polypeptides) were diluted in dilution buffer and added to VCAM-1-coated plates. […] Plates were spun down at 280×g for 5 minutes with assay buffer decanted by inversion before measuring fluorescence intensity (excitation=485 nm, emission=530 nm) with LJL Analyst HT 96.384 (Molecular Devices, Sunnyvale, Calif.).
FIG. 5 is a graph showing the cell adhesion index for anti-VLA4-antibody (used as a positive control for maximal inhibition of cell adherence), dilution buffer alone (“no treatment”, a control to show maximal cell adherence to the immobilized VCAM-1), 2D-VCAM-1 valiant Clone 46 (SEQ ID NO:12), Q38L-2D-VCAM-1 polypeptide (SEQ ID NO:10), and human 2D-VCAM-1 (SEQ ID NO:2). The cell adhesion index was calculated as (fluorescence intensity, VCAM-coated well)/(fluorescence intensity, non-CAM-1-coated well). […]

T1 sequence (P13612 34-1032, chain 1 of 2): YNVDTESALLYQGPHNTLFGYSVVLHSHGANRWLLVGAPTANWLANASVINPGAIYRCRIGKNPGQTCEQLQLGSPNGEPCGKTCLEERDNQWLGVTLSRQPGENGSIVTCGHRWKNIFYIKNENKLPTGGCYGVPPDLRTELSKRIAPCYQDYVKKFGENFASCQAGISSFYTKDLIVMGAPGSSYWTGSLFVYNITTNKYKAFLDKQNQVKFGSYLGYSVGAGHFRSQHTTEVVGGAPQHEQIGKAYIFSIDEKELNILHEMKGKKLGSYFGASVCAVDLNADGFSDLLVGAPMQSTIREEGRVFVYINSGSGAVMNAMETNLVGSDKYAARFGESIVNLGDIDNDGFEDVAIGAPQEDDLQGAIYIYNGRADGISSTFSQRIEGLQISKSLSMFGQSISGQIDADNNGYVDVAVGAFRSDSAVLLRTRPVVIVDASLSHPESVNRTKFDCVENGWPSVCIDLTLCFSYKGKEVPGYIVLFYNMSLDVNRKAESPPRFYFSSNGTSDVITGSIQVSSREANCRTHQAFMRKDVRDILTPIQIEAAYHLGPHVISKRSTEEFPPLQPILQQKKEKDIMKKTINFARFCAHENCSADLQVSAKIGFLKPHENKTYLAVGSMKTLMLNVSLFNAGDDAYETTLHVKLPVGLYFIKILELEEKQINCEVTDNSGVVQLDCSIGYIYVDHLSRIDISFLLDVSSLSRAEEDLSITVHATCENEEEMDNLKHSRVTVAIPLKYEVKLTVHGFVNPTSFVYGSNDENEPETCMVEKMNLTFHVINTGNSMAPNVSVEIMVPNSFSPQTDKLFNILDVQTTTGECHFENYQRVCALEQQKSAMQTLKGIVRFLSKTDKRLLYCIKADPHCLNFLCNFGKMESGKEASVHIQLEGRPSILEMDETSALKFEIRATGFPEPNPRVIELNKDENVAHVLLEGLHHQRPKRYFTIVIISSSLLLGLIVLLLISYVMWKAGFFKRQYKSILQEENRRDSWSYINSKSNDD
T1 sequence (P05556 21-798, chain 2 of 2): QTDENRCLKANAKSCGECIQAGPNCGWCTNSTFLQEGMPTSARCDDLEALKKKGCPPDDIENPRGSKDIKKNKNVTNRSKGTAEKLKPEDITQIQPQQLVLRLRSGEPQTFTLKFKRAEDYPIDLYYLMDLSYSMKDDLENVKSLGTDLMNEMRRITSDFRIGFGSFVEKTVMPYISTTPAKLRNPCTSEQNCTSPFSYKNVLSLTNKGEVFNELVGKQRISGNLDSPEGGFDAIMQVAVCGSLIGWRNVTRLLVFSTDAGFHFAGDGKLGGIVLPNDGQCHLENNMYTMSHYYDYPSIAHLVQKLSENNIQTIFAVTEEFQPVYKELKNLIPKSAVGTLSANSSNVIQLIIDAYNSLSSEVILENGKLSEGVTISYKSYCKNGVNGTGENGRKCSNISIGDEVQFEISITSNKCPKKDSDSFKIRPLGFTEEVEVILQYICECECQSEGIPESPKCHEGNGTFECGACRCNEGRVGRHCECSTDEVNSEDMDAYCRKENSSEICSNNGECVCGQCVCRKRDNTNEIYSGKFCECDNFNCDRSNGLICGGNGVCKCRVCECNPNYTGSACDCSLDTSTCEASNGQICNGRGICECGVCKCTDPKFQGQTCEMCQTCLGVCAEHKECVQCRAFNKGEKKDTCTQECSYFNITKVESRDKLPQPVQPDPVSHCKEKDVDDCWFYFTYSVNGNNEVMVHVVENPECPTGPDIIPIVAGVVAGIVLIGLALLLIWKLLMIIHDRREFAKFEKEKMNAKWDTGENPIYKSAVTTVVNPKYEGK

B1: recombinant human 7D-VCAM-1 (ligand)
chain: FKIETTPESRYLAQIGDSVSLTCSTTGCESPFFSWRTQIDSPLNGKVTNEGTTSTLTMNPVSFGNEHSYLCTATCESRKLEKGIQVEIYSFPKDPEIHLSGPLEAGKPITVKCSVADVYPFDRLEIDLLKGDHLMKSQEFLEDADRKSLETKSLEVTFTPVIEDIGKVLVCRAKLHIDEMDSVPTVRQAVKELQVYISPKNTVISVNPSTKLQEGGSVTMTCSSEGLPAPEIFWSKKLDNGNLQHLSGNATLTLIAMRMEDSGIYVCEGVNLIGKNRKEVELIVQEKPFTVEISPGPRIAAQIGDSVMLTCSVMGCESPSFSWRTQIDSPLSGKVRSEGTNSTLTLSPVSFENEHSYLCTVTCGHKKLEKGIQVELYSFPRDPEIEMSGGLVNGSSVTVSCKVPSVYPLDRLEIELLKGETILENIEFLEDTDMKSLENKSLEMTFIPTIEDTGKALVCQAKLHIDDMEFEPKQRQSTQTLYVNVAPRDTTVLVSPSSILEEGSSVNMTCLSQGFPAPKILWSRQLPNGELQPLSENATLTLISTKMEDSGVYLCEGINQAGRSRKEVELIIQVTPKDIKLTAFPSESVKEGDTVIISCTCGNVPETWIILKKKAETGDTVLKSIDGAYTIRKAQLKDAGVYECESKNKVGSQLRSLTL
notes: Bought from R&D Systems; also called immobilized VCAM-1; 7 domain form of VCAM-1
B1: binds.
